{
  "source": "patent US9233143B2",
  "about": "“Medicinal agent for preventing exacerbation of malignant tumor, comprising combination of natriuretic peptide receptor GC-A and GC-B agonists” (National Cerebral and Cardiovascular Center, priority 2011, dated 2016)",
  "origin": "cited, not measured here",
  "target": "T1, natriuretic peptide receptor GC-B (Homo sapiens, UniProt P20594)",
  "T1 sequence (P20594 23-1047)": "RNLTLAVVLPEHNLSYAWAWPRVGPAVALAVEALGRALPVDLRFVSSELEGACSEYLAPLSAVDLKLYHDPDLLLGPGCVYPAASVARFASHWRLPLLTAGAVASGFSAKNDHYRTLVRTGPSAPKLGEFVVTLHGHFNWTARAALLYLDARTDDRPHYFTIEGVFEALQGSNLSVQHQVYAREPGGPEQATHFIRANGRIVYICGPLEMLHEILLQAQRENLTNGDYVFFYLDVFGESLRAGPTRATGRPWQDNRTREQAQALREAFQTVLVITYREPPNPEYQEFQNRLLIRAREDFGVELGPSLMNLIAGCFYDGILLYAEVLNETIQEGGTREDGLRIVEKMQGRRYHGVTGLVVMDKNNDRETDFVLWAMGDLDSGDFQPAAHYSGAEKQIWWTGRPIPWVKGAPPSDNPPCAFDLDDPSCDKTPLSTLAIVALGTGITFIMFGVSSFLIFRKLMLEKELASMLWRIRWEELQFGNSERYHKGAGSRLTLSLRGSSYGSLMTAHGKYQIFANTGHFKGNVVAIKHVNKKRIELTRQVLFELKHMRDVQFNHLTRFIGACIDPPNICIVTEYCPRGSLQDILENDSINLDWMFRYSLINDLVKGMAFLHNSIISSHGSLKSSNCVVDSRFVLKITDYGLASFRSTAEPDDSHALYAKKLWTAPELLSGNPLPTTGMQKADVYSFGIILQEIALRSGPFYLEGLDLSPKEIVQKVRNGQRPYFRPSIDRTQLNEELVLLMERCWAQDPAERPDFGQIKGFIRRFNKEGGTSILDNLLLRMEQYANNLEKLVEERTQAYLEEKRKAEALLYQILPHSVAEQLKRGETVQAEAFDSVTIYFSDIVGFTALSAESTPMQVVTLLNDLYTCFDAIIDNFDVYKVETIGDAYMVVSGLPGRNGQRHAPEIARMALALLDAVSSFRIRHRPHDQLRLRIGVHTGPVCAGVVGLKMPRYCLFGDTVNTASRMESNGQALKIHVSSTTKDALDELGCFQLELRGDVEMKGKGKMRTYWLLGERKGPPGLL",
  "settings": "literature reports; cited from earlier work",
  "note": "Bridge positions count the residues as written; N and C are the ends. Ends that are not written are not given here.",
  "data": [
    {"substance": "hCNP6-22: a peptide consisting of amino acids from position 6 to position 22 of SEQ ID NO: 7 (only the ring structure) (CFGLKLDRIGSMSGLGC; disulfide 1-17 (inferred); listed as Homo sapiens)", "values": [
      {"measurement": "GC-B agonist activity", "result": "comparable to that of hCNP-22"}
    ]}
  ]
}
